± gives the uncertainty stated by the source.
B1: Ventral anterior homeobox 1, residues 102 to 157; numbered along this chain, Q5SQQ9 (parent)
chain: RTRTSFTAEQLYRLEMEFQRCQYVVGRERTELARQLNLSETQVKVWFQNRRTKQKK

Variants of: B1
Experiment: abundance fitness (aPCA) (normalised: wild type 0, dead -1); higher = more abundant; growth selection in yeast, the domain comes from the species named
Conditions: Homo sapiens

Row | Variant | abundance fitness
1 | G26I | -0.63 ± 0.12
2 | G26C | -0.547 ± 0.15
3 | G26Y | -0.342 ± 0.11
4 | G26K | -0.15 ± 0.22
5 | G26F | -0.278 ± 0.12
6 | G26M | -0.351 ± 0.17
7 | G26V | -0.577 ± 0.13
8 | G26H | -0.413 ± 0.12
9 | G26W | -0.892 ± 0.3
10 | G26T | -0.453 ± 0.11
11 | G26A | -0.155 ± 0.1
12 | G26L | -0.297 ± 0.094
13 | G26N | -0.318 ± 0.13
14 | A33D | -0.938 ± 0.3
15 | A33V | -0.786 ± 0.17
16 | A33P | -0.997 ± 0.42
17 | A33G | -0.375 ± 0.092
18 | A33H | -0.925 ± 0.38
19 | A33R | -0.992 ± 0.18
20 | A33Q | -0.989 ± 0.38
21 | A33S | -0.115 ± 0.12
22 | A33T | -0.557 ± 0.28
23 | A33C | -0.295 ± 0.16
24 | A33E | -0.905 ± 0.3

Row | Variant | abundance fitness
25 | A33W | -0.483 ± 0.19
26 | A33N | -0.897 ± 0.35
27 | A33L | -0.693 ± 0.17
28 | A33Y | -0.692 ± 0.25
29 | F18I | -0.689 ± 0.34
30 | F18W | -0.181 ± 0.14
31 | F18V | -0.887 ± 0.18
32 | F18C | -0.741 ± 0.27
33 | F18Y | -0.124 ± 0.23
34 | F18M | -0.674 ± 0.21
35 | F18L | -0.927 ± 0.17
36 | Y23N | 0.069 ± 0.46
37 | Y23C | -0.145 ± 0.26
38 | Y23E | 0.012 ± 0.35
39 | Y23G | -0.21 ± 0.2
40 | Y23D | -0.164 ± 0.42
41 | Y23Q | 0.132 ± 0.34
42 | Y23S | 0.03 ± 0.15
43 | Y23V | -0.045 ± 0.21
44 | Y23L | 0.055 ± 0.15
45 | Y23M | 0.181 ± 0.28
46 | Y23K | 0.051 ± 0.29
47 | Y23I | -0.117 ± 0.29
48 | Y23W | -0.527 ± 0.35

Row | Variant | abundance fitness
49 | Y23F | -0.088 ± 0.24
50 | Y23A | 0.082 ± 0.19
51 | Y23H | 0.04 ± 0.34
52 | R27I | 0.19 ± 0.43
53 | R27Q | 0.009 ± 0.15
54 | R27S | 0.18 ± 0.15
55 | R27K | -0.045 ± 0.2
56 | R27C | -0.026 ± 0.2
57 | R27H | -0.245 ± 0.26
58 | R27L | -0.049 ± 0.13
59 | R27E | 0.167 ± 0.15
60 | R27T | 0.013 ± 0.15
61 | R27A | 0.07 ± 0.14
62 | R27N | 0.156 ± 0.29
63 | R27G | 0.003 ± 0.097
64 | R27Y | -0.108 ± 0.21
65 | R27V | -0.01 ± 0.12
66 | R27P | 0.008 ± 0.18
67 | R27F | -0.141 ± 0.37
68 | V24E | -0.367 ± 0.22
69 | V24W | -0.416 ± 0.24
70 | V24T | -0.074 ± 0.19
71 | V24A | -0.12 ± 0.14
72 | V24I | -0.086 ± 0.15

Row | Variant | abundance fitness
73 | V24L | 0.059 ± 0.14
74 | V24F | -0.408 ± 0.32
75 | V24G | -0.436 ± 0.14
76 | V24S | -0.09 ± 0.14
77 | V24D | -0.347 ± 0.31
78 | V24M | -0.16 ± 0.18
79 | V24P | -0.167 ± 0.21
80 | V24C | 0.12 ± 0.21
81 | V24Y | -0.421 ± 0.25
82 | V24H | -0.307 ± 0.24
83 | V24R | -0.243 ± 0.13
84 | V24Q | -0.559 ± 0.24
85 | V24N | -0.25 ± 0.32
86 | E17C | -0.209 ± 0.22
87 | E17V | -0.296 ± 0.15
88 | E17M | -0.281 ± 0.23
89 | E17W | -0.359 ± 0.2
90 | E17L | -0.558 ± 0.2
91 | E17T | -0.297 ± 0.23
92 | E17K | -0.604 ± 0.3
93 | E17G | -0.679 ± 0.14
94 | E17R | -0.421 ± 0.13
95 | E17D | -0.65 ± 0.29
96 | E17F | -0.031 ± 0.36

Row | Variant | abundance fitness
97 | E17I | -0.544 ± 0.37
98 | E17Q | -0.296 ± 0.27
99 | E17S | -0.294 ± 0.16
100 | E17H | -0.044 ± 0.23
101 | Q19R | -0.316 ± 0.11
102 | Q19W | -0.213 ± 0.15
103 | Q19A | -0.002 ± 0.12
104 | Q19Y | -0.603 ± 0.3
105 | Q19L | -0.044 ± 0.12
106 | Q19E | -0.039 ± 0.14
107 | Q19C | -0.225 ± 0.16
108 | Q19P | -0.732 ± 0.24
109 | Q19H | -0.274 ± 0.24
110 | Q19F | -0.33 ± 0.24
111 | Q19D | -0.161 ± 0.19
112 | Q19M | -0.133 ± 0.17
113 | Q19N | -0.115 ± 0.22
114 | Q19V | -0.153 ± 0.11
115 | Q19G | -0.133 ± 0.11
116 | Q19T | -0.046 ± 0.14
117 | Q19S | -0.063 ± 0.13
118 | Q19I | -0.165 ± 0.21
119 | C21M | -0.434 ± 0.27
120 | C21Y | -0.404 ± 0.28

Row | Variant | abundance fitness
121 | C21E | -0.101 ± 0.2
122 | C21H | -0.215 ± 0.35
123 | C21Q | -0.37 ± 0.27
124 | C21R | -0.229 ± 0.17
125 | C21G | -0.16 ± 0.2
126 | C21V | -0.054 ± 0.17
127 | C21D | 0.16 ± 0.47
128 | C21W | -0.635 ± 0.33
129 | C21A | -0.166 ± 0.31
130 | C21K | -0.169 ± 0.31
131 | C21L | -0.377 ± 0.17
132 | C21P | -0.231 ± 0.41
133 | C21F | -0.21 ± 0.41
134 | C21S | -0.013 ± 0.17
135 | C21T | -0.019 ± 0.35
136 | E15A | -0.876 ± 0.17
137 | E15N | -0.564 ± 0.24
138 | E15S | -0.766 ± 0.2
139 | E15L | -0.44 ± 0.22
140 | E15R | -0.787 ± 0.13
141 | E15M | -0.982 ± 0.27
142 | E15C | -0.803 ± 0.32
143 | E15V | -0.847 ± 0.17
144 | E15P | -1.07 ± 0.36

Row | Variant | abundance fitness
145 | E15W | -0.71 ± 0.25
146 | E15F | -0.533 ± 0.33
147 | E15Q | -1.01 ± 0.27
148 | E15H | -1.08 ± 0.44
149 | E15D | -0.379 ± 0.22
150 | E15G | -0.823 ± 0.14
151 | E31L | -0.5 ± 0.15
152 | E31D | -0.234 ± 0.29
153 | E31K | -0.592 ± 0.21
154 | E31R | -0.657 ± 0.12
155 | E31V | -0.315 ± 0.14
156 | E31Y | -1.04 ± 0.43
157 | E31P | -0.662 ± 0.24
158 | E31H | -0.468 ± 0.3
159 | E31I | -0.399 ± 0.28
160 | E31F | -0.795 ± 0.32
161 | E31G | -0.454 ± 0.12
162 | E31N | 0.028 ± 0.41
163 | E31W | -0.721 ± 0.21
164 | E31Q | -0.347 ± 0.17
165 | E31C | -0.683 ± 0.22
166 | E31S | -0.386 ± 0.15
167 | E31T | -0.243 ± 0.19
